# Laboratory results from patent US20250074982A1 (CITY OF HOPE, published 2025).
# B1: CS1-dbBiTE (anti-CS1-huOKT3 dual specific bivalent T-cell engager: intact elotuzumab clicked to intact humanized OKT3 at their reduced hinge regions) (bispecific antibody, human IgG1, kappa)
# heavy: not shown
# light: DIQMTQSPSSLSASVGDRVTITCKASQDVGIAVAWYQQKPGKVPKLLIYWASTRHTGVPDRFSGSGSGTDFTLTISSLQPEDVATYYCQQYSSYPYTFGQGTKVEIKRTVAAPSVFIFPPSDEQLKSGTASVVCLLNNFYPREAKVQWKVDNALQSGNSQESVTEQDSKDSTYSLSSTLTLSKADYEKHKVYACEVTHQGLSSPVTKSFNRGEC
# VH: QLVQSGGGVVQPGRSLRLSCKASGYTFTRYTMHWVRQAPGKGLEWIGYINPSRGYTNYNQKVKDRFTISTDKSKSTAFLQMDSLRPEDTAVYYCARYYDDHYCLDYWGQGTPVTV
# VL: DIQMTQSPSSLSASVGDRVTITCSASSSVSYMNWYQQTPGKAPKRWIYDTSKLASGVPSRFSGSGSGTDYTFTISSLQPEDIATYYCQQWSSNPFTFGQGTKLQITR
# modifications: one PEG5-N3 per light chain; reduced cysteines of the heavy chain alkylated with bromoacetamide-PEG5-N3, an average of 3 PEG5-N3/heavy chain; one DBCO/light chain (bromoacetamido-DBCO on reduced cysteine); reduced cysteines alkylated with bromoacetamido-DBCO, an average of 3 DBCO/heavy chain; clicked to PEG5-N3 on huOKT3
# Biological target: CS1 on MM.1S multiple myeloma cells (human, UniProt Q9NQ25 23-335)
# Assay: cell-based or functional assay
binder,measurement,value
B1,IFN-γ and TNF-α positive cells detected by intracellular cytokine staining,> 2 fold
